From publication doi:10.1101/2021.10.05.463282 (2021) come the findings set out here.

Experiment [1] deals with recombinant trimeric spike protein derived from SARS-CoV-2 (Sino Biological) (SARS-CoV-2, ancestral (Wuhan-Hu-1) …, UniProt P0DTC2). The experiment is described as follows: ELISA. A general note: In an ELISA, binding on a coated surface is turned into a signal by an enzyme label.
Experiment [2] has as its target SARS-CoV-2 spike ectodomain trimer (SARS-CoV-2, ancestral (Wuhan-Hu-1) …, UniProt P0DTC2). In words: cryo-EM structure.

B1: B8-mIgA1 (antibody, V domains shown)
VH: EVQLVQSGAEVKKPGSSVKVSCKASGGTFSNYGISWVRQAPGQGLEWMGRILPTFGTANSAQKFQGRVTITADESTGTAYMELRSLRSEDTAVYYCAKEGLAFLGYGMDVWGQGTTVTVSS
VL: EIVLTQSPGTLSLSPGERATLSCRASQSVSSYLAWYQQKPGQAPRLLIYDASNRATGIPARFIGSGSGTDFTLTISSLEPEDFAVYFCQQRSNWPLTFGGGTKVEIK
Turning to B1, in experiment [1], the binding result is “binds”.

B2: B8-dIgA2 (antibody, V domains shown)
VH: EVQLVQSGAEVKKPGSSVKVSCKASGGTFSNYGISWVRQAPGQGLEWMGRILPTFGTANSAQKFQGRVTITADESTGTAYMELRSLRSEDTAVYYCAKEGLAFLGYGMDVWGQGTTVTVSS
VL: EIVLTQSPGTLSLSPGERATLSCRASQSVSSYLAWYQQKPGQAPRLLIYDASNRATGIPARFIGSGSGTDFTLTISSLEPEDFAVYFCQQRSNWPLTFGGGTKVEIK
Take B2: the binding result in experiment [1] is “binds”.

B3: B8-mIgA2 (antibody, V domains shown)
VH: EVQLVQSGAEVKKPGSSVKVSCKASGGTFSNYGISWVRQAPGQGLEWMGRILPTFGTANSAQKFQGRVTITADESTGTAYMELRSLRSEDTAVYYCAKEGLAFLGYGMDVWGQGTTVTVSS
VL: EIVLTQSPGTLSLSPGERATLSCRASQSVSSYLAWYQQKPGQAPRLLIYDASNRATGIPARFIGSGSGTDFTLTISSLEPEDFAVYFCQQRSNWPLTFGGGTKVEIK
As to B3, the binding result in experiment [1] was “binds”.

B4: B8-dIgA1 (antibody, V domains shown)
VH: EVQLVQSGAEVKKPGSSVKVSCKASGGTFSNYGISWVRQAPGQGLEWMGRILPTFGTANSAQKFQGRVTITADESTGTAYMELRSLRSEDTAVYYCAKEGLAFLGYGMDVWGQGTTVTVSS
VL: EIVLTQSPGTLSLSPGERATLSCRASQSVSSYLAWYQQKPGQAPRLLIYDASNRATGIPARFIGSGSGTDFTLTISSLEPEDFAVYFCQQRSNWPLTFGGGTKVEIK
B4: the binding result in experiment [1] is on record as “binds”.

B5: B8 Fab (Fab, V domains shown)
VH: EVQLVQSGAEVKKPGSSVKVSCKASGGTFSNYGISWVRQAPGQGLEWMGRILPTFGTANSAQKFQGRVTITADESTGTAYMELRSLRSEDTAVYYCAKEGLAFLGYGMDVWGQGTTVTVSS
VL: EIVLTQSPGTLSLSPGERATLSCRASQSVSSYLAWYQQKPGQAPRLLIYDASNRATGIPARFIGSGSGTDFTLTISSLEPEDFAVYFCQQRSNWPLTFGGGTKVEIK
B5: in experiment [2], the binding result was “binds”.

B6: B8-IgG1 (antibody, V domains shown)
VH: EVQLVQSGAEVKKPGSSVKVSCKASGGTFSNYGISWVRQAPGQGLEWMGRILPTFGTANSAQKFQGRVTITADESTGTAYMELRSLRSEDTAVYYCAKEGLAFLGYGMDVWGQGTTVTVSS
VL: EIVLTQSPGTLSLSPGERATLSCRASQSVSSYLAWYQQKPGQAPRLLIYDASNRATGIPARFIGSGSGTDFTLTISSLEPEDFAVYFCQQRSNWPLTFGGGTKVEIK
As for B6, the binding result in experiment [1] is “binds”.
